From the DeepSol protein solubility set

Test: soluble on expression in E. coli; label from the status in PepcDB or PDB records
With “MDGTIKEALSVVSDDQSLFDSAYGAAAHLPKADMTASGSPDYGQPHKINPLPPQQEWINQPVRVNVKREYDHMNGSRESPVDCSVSKCSKLVGGGESNPMNYNSYMDEKNGPPPPNMTTNERRVIVPADPTLWTQEHVRQWLEWAIKEYSLMEIDTSFFQNMDGKELCKMNKEDFLRATTLYNTEVLLSHLSYLRESSLLAYNTTSHTDQSSRLSVKEDPSYDSVRRGAWGNNMNSGLNKSPPLGGAQTISKNTEQRPQPDPYQILGPTSSRLANPGSGQIQLWQFLLELLSDSANASCITWEGTNGEFKMTDPDEVARRWGERKSKPNMNYDKLSRALRYYYDKNIMTKVHGKRYAYKFDFHGIAQALQPHPTESSMYKYPSDISYMPSYHAHQQKVNFVPPHPSSMPVTSSSFFGAASQYWTSPTGGIYPNPNVPRHPNTHVPSHLGSYY” the “soluble on expression in E. coli” value was “soluble”. For “GSMTEIALIGNPNSGKTSLFNLITGHNQRVGNWPGVTVERKSGLVKKNKDLEIQDLPGIYSMSPYSPEEKVARDYLLSQRADSILNVVDATNLERNLYLTTQLIETGIPVTIALNMIDVLDGQGKKINVDKLSYHLGVPVVATSALKQTGVDQVVKKAAHTTTSTVGDLAFPIYDDRLEAAISQILEVLGNSVPQRSARFYAIKLFEQDSLVEAELDLSQFQRKEIEDIIRITEEIFTEDAESIVINERYAFIERVCQMAESHTEDFALTLS”, the “soluble on expression in E. coli” value was “soluble”. With “MRTMKAPSMGATVEVLSFLQPVTRELVHRSSIAEVFVTDGVRTGENAFSVGAQWPRDHALYHPDENGLNDPLLFAETLRQAHFYGAHTYFGVPVGSRFIGQDVSFEITDPTALRVGAAPLAVVLNGTWTEERDRRGRPAGARLDVTLTVDGRPCGRGHTRGLMLDDRRYRLLRGRPAASGEVSPPRPAPDARIARPNRVGRLRWKDCVLERDRPDQDWRLRVDRDHAVLFDHPTDHVPLMVMLEGFRQLGHLTVHEASRRTLGDRAFALAGLSLDCAAFGELGETILLSLEKGPSEGVPTEECALRVAAHQGERLLARADMTWKCVGSRAPWSRFASWLEHHHHHH” the “soluble on expression in E. coli” value was “not soluble”. In the case of “MGSDKIHHHHHHMMPIRRPFGRGPAVSLFTLGTMRAIGSAEQMYGVVKAAQAAGINHIETSPAYGPAESFLGTALRQLQQKQAEPSGGWVITSKLLPGLSLKEGQCELHNLLARLGRPKLENLAVHGLNRPEHLEWALSGDGAALLRWAEEEDLVVQVGFTSHGSFPLIKEALASGRFQFCSLHLHLLDPERIPLAREALASGMGVMAISPADKGGRLQDPSPTLVEDCSPLSPLQLAYRFLLAAKISTLSLGAAQPEDLTLAAQLANADGPLNQREQRALNQLRQQGERRLGENRCGQCKACLPCPKSVPIPDLLRLRNLAVGHNLQAFTEERYNLIGRAGHWWEGIDGSACERCGECLPRCPHHLPIPDLLADTHQRLAAAPRRRLWG”, the “soluble on expression in E. coli” value is reported as “not soluble”. With “MHFSRIVSGLACSIILNISVSNANAAQVENYTQYLPDGANLALMVQKIGASTPAIDYHAQQMALPASTQKVLTALAALLQLGPDFRFNTTLESHGTITDGVLRGNLIARFGGDPTLTRQQLRNMVATLRKAGVKQIAGDVVIDTSVFASHDKAPGWPWNDMTQCFSAPPAAAIVDRNCFSVSLYSAPNPGDTAFIRVASYYPVQMFSEVRTLAKGSPDAQYCELDVVPGELNRFTLTGCLTQRSEPLPLAFAVQNGASYAGAILKDELKKADIQIDGNLRRQTIPSPAGNVLAQTQSAPLHDLLKIMLKKSDNMIADTVFRTIGHQRFGVPGTWRSGADAVRQILRQKAGVDLGNSIVVDGSGLSRHNLISPATMMQVLQYIAQNDQELNFISMLPLAGYDGTLRYRGGLHEAGVNGKVSAKTGALQGVYNLAGFITTASGQRMAFVQFLSGYAVPPEDQKNRRAPLVRFESRLYKDIYQNN” the “soluble on expression in E. coli” value was “not soluble”. For “MPPPSPLHLDPIEEAHRQWTKHGWGDVADGMAAVTSVMRAQQIMMARVEEVLKPSGLTFARYELLTLLTFTRTGALPMAKASARLQVHPTSVTNAVDRLETANLVRRVPHPSDRRATLIEITDAGRKLAVESTERLNAQVFSRPGVSGDKLEQLVTILAELRREAGDFDTGDAPTKW”, the “soluble on expression in E. coli” value was “not soluble”. For “RDDSTLVIGHNTGALAHRINDPQHAGSIVTAIKQETDLDVTIECVVGTDPKAAGFSEPENKKVWNPEPKPEPKPEPKPEPKPEPEPAPASDNVWGAPAPLGGGQPATPPPPPVERFSPAKATAPQPPAAPQPVQEAPKPRWQQAAERGMRKMEERAKRPSFSDGVPLPPEPEEPDVPPDLYGYPADEGIPEPQTPQATSNYVVDHDEEEEMVREAAQGVGNRDHRDAMTVAVDILSEELGARQL”, the “soluble on expression in E. coli” value was “not soluble”. With “MSLTQNAVEKTPVTMLGLGAMGTALARTWLAAGHRLTVWNRTPARAAALAAEGARVADSAAEAVAANTLVIVCLLDDSSVDEVLAGIDLADTDLVNLTTSTPAQARARAEWANERGARYLDGGIMAVPPMIGVPEAGSYVFCSGSRELFERHQETLGIPAGTTYVGMDAGFAALHDMALLSAMYGMFAGVAHAFALIHKEDIDPTSLAPMLADWLVAMAPAVHQTADHLRSGDYTKGVVSTLAMQVAGTPTFLSTAEQQGVSPELLSPYFELMRRRLAEGSGEEDLTGVINLLVHEGHHHHHH” the “soluble on expression in E. coli” value was “not soluble”. With “MATMTTKSHCTFNPDYYQDVWQRFGEEEYDVVVIGGGSVGAGAGLDAAIRGLKVAVVESRDFAAGTSSRSSKMFHGGLRYLAMLDFKLVAESLHERELNMSTLAPHLVKPLKFLFPLTHHVWERVMMFGGFTLYDLMGGAKSVPMQKHYSRKGTLAMAPGLKDDAVVGSVRYFDTLVDDARHTMTVLRTAGELGADVRPSTQVVGFEKDGQRVVGAILQDTDTGEQTTIRGKVFINATGVWNDHIEKLAGGNGPFSVHASKGVHIVVPKNVFDADAAMCFVTEKSVLFVIPWGEYWIIGTTDTDWDLNRADPAPTAADINYILDEVNQRVRRPIQHSDIVGVYSGLRPLLSGKSDTTTKLSRNHAVAKVMPGLVSVAGGKYTTYRVIGKDAVDLATEDLDFRVPASESERTPILGADGYHALQNQAPRIARTFGTTEDVVEHLLGRYGSLVHEVLEPSVDKPELLEPIPGAPGYIKAEAVYAVTHEGALHVEDIVERRLRAGIEYADRGVAAAPAIAELVADYLGWDAERTAAEVTAFTDRVSAEIAAEKELTDKAANEHIVAGSAVRSYVDVSGDNLEHHHHHH” the “soluble on expression in E. coli” value was “soluble”. In the case of “AHHHHHHGSVIEEEGKVEILPRDVDLSKYVDSVEVDVDNFGDYHELRKELREKKMRFIDANVFIYAILKPKRELNEKELKIKRVSKEIFNRINGGEEVVTTVVHLSEVANVLEDAANLSFAISFLKDVLIKGNVIVEEVSDRDYMESVLLAEEKGVSINDALAYILMKRKGIEEIYTFDRHFENLDVRIVNS”, the “soluble on expression in E. coli” value is reported as “soluble”. In the case of “MSTRKDYLSFIAVAAHEFVHTWNVKQYRPKGIVPYDYQQENYSNLLWLVEGSTSYLQYQLLLRGNLMTTDEFFTALAKRITAHAHKPGKESQSVAQASFDAWISEGGDYGNNHSVNIYSEGFLASWLLDFDILAKTALEHHHHHH”, the “soluble on expression in E. coli” value is reported as “not soluble”. In the case of “MQPTPTQRPEAIVHDEKAQLDFARDMSYGDYLHLDELLGAQHPLSPEHNEMLFIVQHQTSELWMKLMLHELRAAIAAIQQDRLQPAFKMLARVSKILEQLVSAWDVLATMTPPEYSALRPYLAHSSGFQSYQYRQIEYLLGNKNAAMLQPHAHRADLLAQVRAAFEAPSLYDEALRFLARSGLAVPAGALQRDWTQPYRADDQVEQAWLTVYRQSERYWNQYQLGEKLTDLEDAFRLWRFRHVTTVERIIGFKRGTGGTSGVTYLRKMLEVVLFPEIWKLRTDLLEHHHHHH”, the “soluble on expression in E. coli” value is reported as “not soluble”. With “MGSDKIHHHHHHMNVLIVSSSEGITLSLLRCLGLLNIKSHVISVWKSSGSSRFSRFCKNYISSFITESSQGAENIADVINDYCKQQKIDIIIPSGLLGTFLVALIKEKLSYSSVFPINDADKIYNLNNKWQFYHLLRQHNIPTPKTILIETPEQIKLLNLNFPVMVKPLDRGNGYGVKKIDSIVDLHGYISNASQINNLPILVQEYVFGYDILLNVLAENGKLIAWTINRRVPYFFEFFQDENILEIAHKIIDSCNYTGVANFDIRFDERSNSVKVIECNPRFWASFGASVSYGIDFVNLGILLAQGQKLPDNLKKEVTCTEPEKIPYPSPSQFLKGLLLAKYPFAAMKKISSDLAWQSILDPLPNIYEKIWNRLGIVNTHDGVMLNKLLSNSIRVKI” the “soluble on expression in E. coli” value was “not soluble”. In the case of “SASATAPAAAVPTLASPLEQLRHLAEELRLLLPRVRVGEAQETTEEFNREMFWRRLNEAAVTVSREATTLTIVFSQLPLPSPQETQKFCEQVHAAIKAFIAVYYLLPKDQGITLRKLVRGATLDIVDGMAQLMEVLSVTPTQSPENNDLISYNSVWVACQQMPQIPRDNKAAALLMLTKNVDFVKDAHEEMEQAVEECDPYSGLLNDTEENNSDNHNHEDDVLGFPSNQDLYWSEDDQELIIPCLALVRASKACLKKIRMLVAENGKKDQVAQLDDIVDISDEISPSVDDLALSIYPPMCHLTVRINSAKLVSVLKKALEITKASHVTPQPEDSWIPLLINAIDHCMNRIKELTQSELEL”, the “soluble on expression in E. coli” value is reported as “soluble”. For “DSDCHFAEQRDFSSQWFRVDDGGEIPDEQELHWHLEYLQQNPNAARDLLHALLPDKDASQGDWRCSYRLLQSADLMPLVFDYRWLMNGQFAFYLVDSASQENGGVATTLLVRALFDDYLRNLKSFSADLKDMVNIMEKGIECSDCAGAVK”, the “soluble on expression in E. coli” value was “not soluble”. With “MGHHHHHHSHMKPLIWTWSDVEGQRPALLICTAAAGPTQGVKGYGKPFEPRSVKNIHSTPAYPDATMHRQLLAPVEGRMAETLNQKLHVANVLEDDPGYLPHVYSEEGECGGAPSLSSLASLEQELQPDLLDSLGSKATPFEEIYSESGVPS” the “soluble on expression in E. coli” value was “not soluble”. With “MNSKSAQGLAGLRNLGNTCFMNSILQCLSNTRELRDYCLQRLYMRDLHHGSNAHTALVEEFAKLIQTIWTSSPNDVVSPSEFKTQIQRYAPRFVGYNQQDAQEFLRFLLDGLHNEVNRVTLRPKSNPENLDHLPDDEKGRQMWRKYLEREDSRIGDLFVGQLKSSLTCTDCGYCSTVFDPFWDLSLPIAKRGYPEVTLMDCMRLFTKEDVLDGDEKPTCCRCRGRKRCIKKFSIQRFPKILVLHLKRFSESRIRTSKLTTFVNFPLRDLDLREFASENTNHAVYNLYAVSNHSGTTMGGHYTAYCRSPGTGEWHTFNDSSVTPMSSSQVRTSDAYLLFYELASPPSRMAAALEHHHHHH” the “soluble on expression in E. coli” value was “soluble”. With “MSLNNRIIYVVSDSVGETAELVVKAALSQFNGSADDTHVRRIPYVEDIGTINEVISLAKADGGIICFTLVVPEIREYLIAEAEKANVLYYDIIGPLIDKMETAYGLTAKYEPGRVRQLDEDYFKKVEAIEFAVKYDDGRDPRGILKADIVLIGVSRTSKTPLSQYLAHKRLKVANVPIVPEVDPPEELFNVDPKKCIGLKISPDKLNHIRKERLKSLGLNDKAIYANINRIKEELEYFEKIVDRIGCQVVDVSNKAVEETANIIHHLKTKNIEGHHHHHH” the “soluble on expression in E. coli” value was “soluble”. For “MIIKKIIDLTMPITAQTPVYPGDPKPKIEPAATFAQDGYHVSRLVLGSHSGTHVDAPFHFCEHGWRLDDVPLTYFLGRGVVIDATGKAEGEAVTMADAAPYIPKLSPGTIVLFHTGWSQYAGTKRYFRHPYVAPDVIEAMLERGVRTFLIDALNIDPPDGSLFHAHELILGANGVIGENFVNFERIDFDDPYIIALPLSLPGCERFARSGGGGAVGVTKKGDTAPHML”, the “soluble on expression in E. coli” value was “not soluble”. For “MVDLEQEFALGGRCLAFHGPLMYEAKILKIWDPSSKMYTSIPNDKPGGSSQATKEIKPQKLGEDESIPEEIINGKCFFIHYQGWKSSWDEWVGYDRIRAYNEENIAMKKRLANEAKEAKKSLLEHHHHHH”, the “soluble on expression in E. coli” value was “soluble”.
